Earlier results in article PMC9252436.

Target: CD47 (Homo sapiens) (UniProt Q08722)
Chain of UniProt Q08722 (Q08722 19-323): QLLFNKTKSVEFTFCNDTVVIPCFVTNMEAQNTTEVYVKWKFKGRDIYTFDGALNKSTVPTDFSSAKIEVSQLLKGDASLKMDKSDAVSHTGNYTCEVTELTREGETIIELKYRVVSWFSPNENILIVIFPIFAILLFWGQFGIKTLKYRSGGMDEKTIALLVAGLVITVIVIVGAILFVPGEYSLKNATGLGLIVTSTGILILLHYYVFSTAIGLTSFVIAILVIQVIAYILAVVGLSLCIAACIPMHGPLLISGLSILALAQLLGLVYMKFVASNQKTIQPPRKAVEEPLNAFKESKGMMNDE

With SIRPα (from UniProt P78324) as the substance, how does the Kd read?
The Kd was 16 nM.
